The numbers were not newly measured in publication PMC10299133, which cites them from elsewhere.

The target in the series is MET (Homo sapiens) (UniProt P08581).
Sequence of MET (Homo sapiens) (P08581 25-932): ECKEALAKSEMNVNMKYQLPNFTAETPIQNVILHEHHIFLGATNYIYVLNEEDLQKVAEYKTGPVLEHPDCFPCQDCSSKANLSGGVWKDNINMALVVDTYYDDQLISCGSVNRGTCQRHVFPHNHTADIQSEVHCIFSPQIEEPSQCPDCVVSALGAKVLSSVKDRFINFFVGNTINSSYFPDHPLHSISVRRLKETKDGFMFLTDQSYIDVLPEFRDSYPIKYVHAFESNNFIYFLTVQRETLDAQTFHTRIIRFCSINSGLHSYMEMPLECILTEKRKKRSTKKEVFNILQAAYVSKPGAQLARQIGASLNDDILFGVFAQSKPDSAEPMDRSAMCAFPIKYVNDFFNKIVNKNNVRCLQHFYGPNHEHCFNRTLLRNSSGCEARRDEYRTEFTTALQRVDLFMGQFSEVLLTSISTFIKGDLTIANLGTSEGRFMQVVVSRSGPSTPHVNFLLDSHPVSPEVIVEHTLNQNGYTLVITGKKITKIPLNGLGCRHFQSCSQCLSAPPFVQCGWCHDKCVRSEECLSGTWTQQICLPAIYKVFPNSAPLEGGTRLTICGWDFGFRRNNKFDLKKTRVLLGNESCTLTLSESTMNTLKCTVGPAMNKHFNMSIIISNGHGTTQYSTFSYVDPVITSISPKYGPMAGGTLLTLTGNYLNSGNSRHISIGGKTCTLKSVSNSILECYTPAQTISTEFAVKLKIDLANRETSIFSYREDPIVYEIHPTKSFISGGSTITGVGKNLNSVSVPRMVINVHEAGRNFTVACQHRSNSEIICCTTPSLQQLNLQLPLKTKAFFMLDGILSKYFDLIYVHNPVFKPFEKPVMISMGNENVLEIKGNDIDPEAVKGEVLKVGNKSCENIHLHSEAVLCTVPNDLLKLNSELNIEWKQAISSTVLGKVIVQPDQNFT

For amivantamab, the Kd (commonly the free concentration of one partner at which half of the binding sites on the other are occupied at equilibrium, for simple one-to-one binding) was 0.04 nM.
